Substrate in this series: Cc1cc(=O)oc2cc(NC(=O)[C@H](N)CC(C)C)ccc12
Nature of the series: Steady-state activity assay with Leu-AMC (fluorescence). In kind it is biochemical, Pseudomonas aeruginosa. As to conditions: other: Leu-AMC varied, 3 mM MnCl2, pH 8.0, 25.0 °C. The protocol: A BMG Labtech POLARstar Omega plate reader was used for activity assays and kinetic studies involving amino acids conjugated to para-nitroaniline (pNA) (Sigma) or peptides as substrates. Assays were carried out at 25 °C in clear half-area 96-well plates (Greiner Bio-One). The pNA product formed upon PaPepA-mediated bond cleavage strongly absorbs at 405 nm; therefore, initial rates were measured by monitoring the increase in absorbance at 405 nm over time. For kinetic assays investigating Leu-AMC as a substrate, a SpectraMax M2E was used. Reactions were carried out using black half-area 96-well plates with clear bottoms (Greiner Bio-One). Product formation was assessed by monitoring changes in fluorescence, with the excitation wavelength set at 341 nm and emission at 441 nm. The cutoff was 420 nm. PMT gain was set to medium, with six flashes per read. PaPepA was added at a final concentration of 100 nM to start reactions. Calibration curves of pNA concentration vs absorbance and AMC vs fluorescence were constructed, and initial rate values were divided by the slope of these calibration curves to reveal the rate of product formation over time (Table S2).
For all assays excluding pH dependence curves, buffer conditions were as follows: 100 mM HEPES, 50 mM KCl, and pH 8.0. For assays carried out under pseudo-first-order conditions, one reaction component was fixed and in excess, while the other was varied. If [metal] was varied, [Leu-pNA] was fixed at 2 mM or [Leu-AMC] was fixed at 170 μM. For assays involving variation of aa-pNA or aa-AMC, MnCl2 was added to a final concentration of 3 mM. PaPepA was added at a final concentration of 100 nM in studies containing MnCl2, and to a final concentration of 1 μM in studies containing MgCl2 as the metal cofactor. Table 1 summarizes steady-state parameters described in Scheme 1 and obtained with different substrates.

B1: PaPepA (Pseudomonas aeruginosa UCBPP-PA14) (protein)
chain: MEFLVKSVRPETLKTATLVLAVGEGRKLGASAKAVDDATGGAISAVLKRGDLAGKVGQTLLLQSLPNLKAERVLLVGAGKERELGDRQYRKLASAVLSTLKGLAGADAALALGDLAVKGRGAHAKARLLVETLADGLYVFDRYKSQKAEPLKLKKLTLLADKADSAAVEQGSKEAQAIANGMALTRDLGNLPPNVCHPTFLGEQAKGLAKEFKSLKVEVLDEKKLRELGMGSFLAVAQGSDQPPRLIILQYNGAKKDQAPHVLVGKGITFDTGGISLKPGLGMDEMKFDMCGAASVFGTFRAVLELQLPINLVGLLACAENMPSGGATRPGDIVTTMSGQTVEILNTDAEGRLVLCDALTYAERFKPQSVIDIATLTGACIVALGSNTSGLMGNNEALVRQLLKAGEFADDRAWQLPLFDEYQEQLDSPFADIANIGGPKAGTITAGCFLSRFAKKYHWAHLDIAGTAWISGGKDKGATGRPVPLLTQYLLERAK
notes: GG stays after cleavage) (N); made in house; host or cells: E. coli BL21(DE3)
With B1, the Michaelis-Menten constant (Km) (usually the substrate concentration at which the rate is half of its maximum) turned out to be 16 ± 1 µM; the kcat (commonly the number of substrate molecules converted per active site and unit of time at saturation) is 0.56 ± 0.01 s⁻¹; the kcat/Km (in general, the second-order rate constant that governs catalysis at low substrate concentration) turned out to be 35400 ± 3100 M⁻¹ s⁻¹.

Values taken from paper PMC10666288, “Unveiling the Catalytic Mechanism of a Processive Metalloaminopeptidase” (Biochemistry, 2023).
